± gives the uncertainty stated by the source.
B1: Formin-binding protein 4, residues 200 to 261; numbered along this chain, Q8N3X1 (parent)
chain: SGWQYDTQCSLAGVGIEMGDWQEVWDENTGCYYYWNTQTNEVTWELPQYLATQVQGLQHYQP

Variants of: B1
Experiment: abundance fitness (aPCA) (normalised: wild type 0, dead -1); higher = more abundant; growth selection in yeast, the domain comes from the species named
Conditions: Homo sapiens

In order of falling abundance fitness:
1. SGWQYDTQCSLAGVGIEMGDWQEVWDENKGCYYYWNTQTNEVTWELPQYLATQVQGLQHYQP [T29K]  0.311 ± 0.073
2. SGWQYDTQCSLAGVGIEMGDWQEVWDENAGCYYYWNTQTNEVTWELPQYLATQVQGLQHYQP [T29A]  0.162 ± 0.065
3. SGWQYDTQCSLAGVGIEMGDWQEVWDENSGCYYYWNTQTNEVTWELPQYLATQVQGLQHYQP [T29S]  0.123 ± 0.074
4. SGWQYDTQCSLAGVGIEMGDWQEVWDENRGCYYYWNTQTNEVTWELPQYLATQVQGLQHYQP [T29R]  0.117 ± 0.054
5. SGWQYDTQCSLAGVGIEMGDWQEVWSENTGCYYYWNTQTNEVTWELPQYLATQVQGLQHYQP [D26S]  -0.007 ± 0.061
6. SGWQYDTQCSLAGVGIEMGDWQEVKDENTGCYYYWNTQTNEVTWELPQYLATQVQGLQHYQP [W25K]  -0.014 ± 0.098
7. SGWQYDTQCSLAGVGIEMGDWQEVWDENHGCYYYWNTQTNEVTWELPQYLATQVQGLQHYQP [T29H]  -0.017 ± 0.16
8. SGWQYDTQCSLAGVGIEMGDWQEVWDENLGCYYYWNTQTNEVTWELPQYLATQVQGLQHYQP [T29L]  -0.036 ± 0.067
9. SGWQYDTQCSLAGVGIEMGDWQEVWDENCGCYYYWNTQTNEVTWELPQYLATQVQGLQHYQP [T29C]  -0.066 ± 0.13
10. SGWQYDTQCSLAGVGIEMGDWQEVWDENFGCYYYWNTQTNEVTWELPQYLATQVQGLQHYQP [T29F]  -0.074 ± 0.19
11. SGWQYDTQCSLAGVGIEMGDWQEVWNENTGCYYYWNTQTNEVTWELPQYLATQVQGLQHYQP [D26N]  -0.084 ± 0.12
12. SGWQYDTQCSLAGVGIEMGDWQEVWDENNGCYYYWNTQTNEVTWELPQYLATQVQGLQHYQP [T29N]  -0.086 ± 0.16
13. SGWQYDTQCSLAGVGIEMGDWQEVWDENMGCYYYWNTQTNEVTWELPQYLATQVQGLQHYQP [T29M]  -0.1 ± 0.11
14. SGWQYDTQCSLAGVGIEMGDWQEVLDENTGCYYYWNTQTNEVTWELPQYLATQVQGLQHYQP [W25L]  -0.119 ± 0.071
15. SGWQYDTQCSLAGVGIEMGDWQEVWDENQGCYYYWNTQTNEVTWELPQYLATQVQGLQHYQP [T29Q]  -0.125 ± 0.093
16. SGWQYDTQCSLAGVGIEMGDWQEVMDENTGCYYYWNTQTNEVTWELPQYLATQVQGLQHYQP [W25M]  -0.129 ± 0.11
17. SGWQYDTQCSLAGVGIEMGDWQEVFDENTGCYYYWNTQTNEVTWELPQYLATQVQGLQHYQP [W25F]  -0.142 ± 0.12
18. SGWQYDTQCSLAGVGIEMGDWQEYWDENTGCYYYWNTQTNEVTWELPQYLATQVQGLQHYQP [V24Y]  -0.145 ± 0.13
19. SGWQYDTQCSLAGVGIEMGDWQEVWDENGGCYYYWNTQTNEVTWELPQYLATQVQGLQHYQP [T29G]  -0.147 ± 0.056
20. SGWQYDTQCSLAGVGIEMGDWQEVWDENPGCYYYWNTQTNEVTWELPQYLATQVQGLQHYQP [T29P]  -0.172 ± 0.11
21. SGWQYDTQCSLAGVGIEMGDWQEVWAENTGCYYYWNTQTNEVTWELPQYLATQVQGLQHYQP [D26A]  -0.176 ± 0.066
22. SGWQYDTQCSLAGVGIEMGDWQEVWTENTGCYYYWNTQTNEVTWELPQYLATQVQGLQHYQP [D26T]  -0.178 ± 0.093
23. SGWQYDTQCSLAGVGIEMGDWQEVADENTGCYYYWNTQTNEVTWELPQYLATQVQGLQHYQP [W25A]  -0.207 ± 0.088
24. SGWQYDTQCSLAGVGIEMGDWQEVYDENTGCYYYWNTQTNEVTWELPQYLATQVQGLQHYQP [W25Y]  -0.209 ± 0.17
25. SGWQYDTQCSLAGVGIEMGDWQEVWCENTGCYYYWNTQTNEVTWELPQYLATQVQGLQHYQP [D26C]  -0.228 ± 0.095
26. SGWQYDTQCSLAGVGIEMGDWQEVIDENTGCYYYWNTQTNEVTWELPQYLATQVQGLQHYQP [W25I]  -0.251 ± 0.24
27. SGWQYDTQCSLAGVGIEMGDWQEVDDENTGCYYYWNTQTNEVTWELPQYLATQVQGLQHYQP [W25D]  -0.252 ± 0.19
28. SGWQYDTQCSLAGVGIEMGDWQEVHDENTGCYYYWNTQTNEVTWELPQYLATQVQGLQHYQP [W25H]  -0.256 ± 0.23
29. SGWQYDTQCSLAGVGIEMGDWQEVWWENTGCYYYWNTQTNEVTWELPQYLATQVQGLQHYQP [D26W]  -0.256 ± 0.092
30. SGWQYDTQCSLAGVGIEMGDWQEVCDENTGCYYYWNTQTNEVTWELPQYLATQVQGLQHYQP [W25C]  -0.263 ± 0.15
31. SGWQYDTQCSLAGVGIEMGDWQEVRDENTGCYYYWNTQTNEVTWELPQYLATQVQGLQHYQP [W25R]  -0.287 ± 0.075
32. SGWQYDTQCSLAGVGIEMGDWQEVSDENTGCYYYWNTQTNEVTWELPQYLATQVQGLQHYQP [W25S]  -0.294 ± 0.083
33. SGWQYDTQCSLAGVGIEMGDWQEVWFENTGCYYYWNTQTNEVTWELPQYLATQVQGLQHYQP [D26F]  -0.296 ± 0.12
34. SGWQYDTQCSLAGVGIEMGDWQEVVDENTGCYYYWNTQTNEVTWELPQYLATQVQGLQHYQP [W25V]  -0.358 ± 0.09
35. SGWQYDTQCSLAGVGIEMGDWQEVPDENTGCYYYWNTQTNEVTWELPQYLATQVQGLQHYQP [W25P]  -0.376 ± 0.14
36. SGWQYDTQCSLAGVGIEMGDWQEVTDENTGCYYYWNTQTNEVTWELPQYLATQVQGLQHYQP [W25T]  -0.381 ± 0.11
37. SGWQYDTQCSLAGVGIEMGDWQEVWDENIGCYYYWNTQTNEVTWELPQYLATQVQGLQHYQP [T29I]  -0.382 ± 0.14
38. SGWQYDTQCSLAGVGIEMGDWQEVEDENTGCYYYWNTQTNEVTWELPQYLATQVQGLQHYQP [W25E]  -0.414 ± 0.1
39. SGWQYDTQCSLAGVGIEMGDWQEVWRENTGCYYYWNTQTNEVTWELPQYLATQVQGLQHYQP [D26R]  -0.515 ± 0.078
40. SGWQYDTQCSLAGVGIEMGDWQEVGDENTGCYYYWNTQTNEVTWELPQYLATQVQGLQHYQP [W25G]  -0.557 ± 0.076
41. SGWQYDTQCSLAGVGIEMGDWQEVWIENTGCYYYWNTQTNEVTWELPQYLATQVQGLQHYQP [D26I]  -0.593 ± 0.13
42. SGWQYDTQCSLAGVGIEMGDWQEVNDENTGCYYYWNTQTNEVTWELPQYLATQVQGLQHYQP [W25N]  -0.853 ± 0.23
43. SGWQYDTQCSLAGVGIEMGDWQEVWPENTGCYYYWNTQTNEVTWELPQYLATQVQGLQHYQP [D26P]  -1.14 ± 0.19

Source: the Human Domainome abundance scans (Beltran et al. 2025)
